How the values were obtained:
[1] = molecular target: T1, PRAME peptide on HLA-A*02:01 (human); experiment: killing
T1 peptide: SLLQHLIGL

[2] = molecular target: T2, PRAME peptide on HLA-A*02:01 (human); experiment: multimer staining
T2 peptide: VLDGLDVLL

binding result [2]: recognises
B1: TCR T4.8-1-29 (TCR, V domains shown)
Valpha: EDQVTQSPEALRLQEGESSSLNCSYTVSGLRGLFWYRQDPGKGPEFLFTLYSAGEEKEKERLKATLTKKESFLHITAPKPEDSATYLCAVHSTAQAGTALIFGKGTTLSVSS
Vbeta: DSGVTQTPKHLITATGQRVTLRCSPRSGDLSVYWYQQSLDQGLQFLIQYYNGEERAKGNILERFSAQQFPDLHSELNLSSLELGDSALYFCASSTHRGQTNYGYTFGSGTRLTVV
binding result [1]: no recognition

— patent US20190169261A1 (published 2019)
